Tests used:
Details in all cases: remark: other sources report otherwise
[1] = target: T1, purified full-length human IGF-I receptor (human), P08069; experiment: ELISA titration on biotinylated human IGF-I receptor captured on streptavidin; non-linear regression for one-site binding
[2] = target: T1, purified full-length human IGF-I …; experiment: ELISA, hybridoma supernatant on coated purified human IGF-I receptor
[3] = target: T1, purified full-length human IGF-I …; experiment: ELISA titration on human IGF-I receptor, similar to that of the whole antibody

| Binder | Kd [1] [nM] | absorbance units (405 nm) (absorbance units) [2] | Kd [3] [nM] |
| --- | --- | --- | --- |
| murine EM164 antibody (antibody, V domains shown, here or on the partner: biotinylated with PEO-maleimide-biotin in the captured format) VH: QVQLQQSGAELVKPGASVKLSCKASGYTFTSYWMHWVKQRPGQGLEWIGEINPSNGRTNYNEKFKRKATLTVDKSSSTAYMQLSSLTSEDSAVYYFARGRPDYYGSSKWYFDVWGAGTTVTVS VL: DVLMTQTPLSLPVSLGDQASISCRSSQSIVHSNVNTYLEWYLQKPGQSPKLLIYKVSNRFSGVPDRFSGSGSGTDFTLRISRVEAEDLGIYYCFQGSHVPPTFGGGTKLEIKR | 0.1 | 1.2 |  |
| Fab fragment of EM164 antibody (Fab, V domains shown, here or on the partner: biotinylated with PEO-maleimide-biotin in the captured format) VH: QVQLQQSGAELVKPGASVKLSCKASGYTFTSYWMHWVKQRPGQGLEWIGEINPSNGRTNYNEKFKRKATLTVDKSSSTAYMQLSSLTSEDSAVYYFARGRPDYYGSSKWYFDVWGAGTTVTVS VL: DVLMTQTPLSLPVSLGDQASISCRSSQSIVHSNVNTYLEWYLQKPGQSPKLLIYKVSNRFSGVPDRFSGSGSGTDFTLRISRVEAEDLGIYYCFQGSHVPPTFGGGTKLEIKR |  |  | 0.3 |

From US20100009439A1
